In US20220073563A1 (ZHEJIANG DOER BIOLOGICS, published 2022):

Columns and labels:
VEGF [1] = biological target: T1, VEGF (UniProt P15692-4 27-191, limits assumed); assay: BLI (Octet-QK), biotin-labeled VEGF on SA probe; repeat 1
T1 construct: In the BLI assay the VEGF was biotin-labeled (Sulfo-NHS biotin, molar ratio 2:1) and loaded on an SA probe
Source text: (§1) The binding affinity of the fusion protein is detected using BLI(Bio-layer inteferometry, ForteBio). […] Biotin not involved in labeling is removed by dialysis. […] The buffer used in the experiment is PBS (containing 0.1% Tween-20). […] Based on the program settings, the fusion protein is bound, and then dissociated in PBST solution, to obtain the experimental curve. According to the result analysis software of Octet-QK, local full is used to fit the curve of the experimental results, to calculate kon, kdis and Kd.

VEGF [2] = biological target: T1, VEGF; assay: BLI (Octet-QK), biotin-labeled VEGF on SA probe; repeat 2
Source text: as §1

VEGF [3] = biological target: T1, VEGF; assay: BLI (Octet-QK), biotin-labeled VEGF on SA probe; repeat 3
Source text: as §1

VEGF [4] = biological target: T1, VEGF; assay: BLI (Octet-QK), biotin-labeled VEGF on SA probe; average value of 3 repeats
Source text: as §1

VEGF [5] = biological target: T1, VEGF; assay: VEGF receptor competitive inhibition ELISA: sample in 3-fold dilutions premixed with 1 µg/mL VEGF, added to coated VEGF Receptor 2/KDR, bound VEGF detected with anti-VEGF antibody
Procedure: Blocking the ELISA plate with 1% BSA/TBS and placing at 37° C. for 2 h. […] The KDR-coated ELISA plate is washed twice and pat-dried. Then, the gradiently diluted mixture samples are successively transferred to the ELISA plate and placed at 37° C. for 1 h, then the plate is washed 5 times. […] The plate is placed at 37° C. for 1 h and washed 5 times. […] The plate is placed at 37° C. for 1 h and washed for 6 times. After the reaction, adding the color developing solution, and developing the color at 37° C. for 15 min. Adding the stop buffer to terminate the color reaction. Reading the OD450 value on the microplate reader.

T1 sequence (P15692 other isoform, or with tags, fused parts or gaps limits assumed): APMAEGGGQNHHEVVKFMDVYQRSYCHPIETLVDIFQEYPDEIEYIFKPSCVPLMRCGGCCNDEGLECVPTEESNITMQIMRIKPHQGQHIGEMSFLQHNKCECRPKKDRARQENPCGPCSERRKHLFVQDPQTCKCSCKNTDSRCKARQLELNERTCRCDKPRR

B1: ankyrin repeat protein binding to VEGF (designed binder)
chain: GSDLDKKLLEAARAGQDDEVRILMANGADVNARDSTGWTPLHLAAPWGHPEIVEVLLKNGADVNAADFQGWTPLHLAAAVGHLEIVEVLLKYGADVNAQDKFGKTAFDISIDNGNEDLAEILQKAA
notes: Unfused ARVEGF used as comparator; also called ARVEGF
- Kd (VEGF [1]): 550 pM
- Kd (VEGF [2]): 470 pM
- Kd (VEGF [3]): 590 pM
- Kd (VEGF [4]): 540 pM
- IC50 (VEGF [5]): 640 pM
